In article PMC3566092:

Tests used:
[1] = target: Recombinant His-tagged WIP1ΔEx6 (UniProt O15297)
[2] = target: Recombinant His-tagged WIP1ΔEx6 (UniProt O15297); remark: listed apart in the source

Sequence of GST-Tax (P03409 whole entry): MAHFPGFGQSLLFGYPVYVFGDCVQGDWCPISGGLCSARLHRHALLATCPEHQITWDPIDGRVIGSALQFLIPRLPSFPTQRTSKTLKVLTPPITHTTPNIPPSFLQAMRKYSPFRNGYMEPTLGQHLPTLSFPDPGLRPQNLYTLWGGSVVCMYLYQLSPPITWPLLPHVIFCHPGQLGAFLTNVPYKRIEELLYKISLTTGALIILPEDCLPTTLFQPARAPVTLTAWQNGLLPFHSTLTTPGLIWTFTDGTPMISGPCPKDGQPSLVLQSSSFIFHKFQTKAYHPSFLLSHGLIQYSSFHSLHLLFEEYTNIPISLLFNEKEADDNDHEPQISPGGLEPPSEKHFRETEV

With “GST-Tax (from UniProt P03409 1-353) (natural protein)” the in vitro phosphatase assay: free phosphate released from the H2AX (pS139) phosphopeptide by His-WIP1 (20 ng) with GST-Tax (100 ng), against His-WIP1 alone or with GST [1] was 2 fold and the in vitro phosphatase assay: free phosphate released from the p38 (pT180) phosphopeptide by His-WIP1 with GST-Tax, against His-WIP1 alone [2] was 2 fold.
